Numbering of substitutions follows the chain as printed.
Experiments:
[1] = target: T1, mutant CD45 D1-D2 protein T266A, N267G (Homo sapiens, UniProt P08575 225-394, limits assumed); assay: binding to mutant CD45 D1-D2 protein relative to WT CD45 D1-D2; method not given
T1 chain: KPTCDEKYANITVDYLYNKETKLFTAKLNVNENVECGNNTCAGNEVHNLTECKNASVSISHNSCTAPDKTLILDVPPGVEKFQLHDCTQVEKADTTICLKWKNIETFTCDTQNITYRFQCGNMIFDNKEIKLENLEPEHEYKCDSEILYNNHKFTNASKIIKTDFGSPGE

[2] = target: T2, mutant CD45 D1-D2 protein E259G (Homo sapiens, UniProt P08575 225-394, limits assumed); assay: as above
T2 chain: T1 chain with E35G, A42T, G43N

B1: mAb U139AGL030-9 (mAb030-9) (antibody, mouse IgG1, kappa, V domains shown)
VH: EVKLLESGGGLVQPGGSLKLSCAASGFDFSRYWMSWVRQAPGKGLEWIGEINPTSSTINFTPSLKDKVFISRDNAKNTLYLQMSKVRSEDTALYYCARGNYYRYGDAMDYWGQGTSVTVSS
VL: DIALTQSPASLAVSLGQRATISCRASKSVSTSGYSYLHWYQQKPGQPPKLLIYLASNLESGVPARFSGSGSGTDFTLNIHPVEEEDAATYYCQHSRELPFTFGSGTKLEIKR
notes: In the biosensor assay the antibody was captured with Anti-Human IgG Fc Capture (AHC); also called mAb30-9; mAb039-9
- % Mutant Binding [1]: 1.4%
- % Mutant Binding [2]: 2.7%

Reference: US20260130997A1 (BEAM THERAPEUTICS, published 2026)
